From US8956612B2, “Peptide associated with rheumatic fever (PARF) and its use as a diagnostic marker” (Helmholtz-Zentrum für Infektionsforschung GmbH, priority 2006, dated 2015)

Key:
collagen IV [1] = molecular target: T1, collagen IV (Homo sapiens, UniProt P02462+P08572); assay: Surface plasmon resonance, FOG fragments on immobilized collagen IV; format: binding; settings: SPR; 12.5, 25, 50, 100 μg/ml
T1 construct: purchased Sigma; host or cells: human placenta (tissue-derived)
Experimental: Site directed mutagenesis was performed on the plasmid pGEX-6P-1-FOGfl that coded for the GST-FOGfl fusion protein. E. coli clones containing the plasmids with the desired substitutions were generated using the GeneTailor™ Site Directed Mutagenesis System (Invitrogen) following the manufacturers recommendations. The tagged proteins from E. coli lysates were bound to glutathione sepharose 4B (GE Healthcare) and eluted with 10 mM reduced L-glutathione (Sigma) in 50 mM TrisHCl (pH=8.0) after washing the matrix with PBS. Alternatively, for SPR measurements of FOG1-B and FOG1-A the GST-tag was removed by digesting the proteins with PreScission™ protease (GE Healthcare) while bound to the affinity matrix, which eluted the untagged FOG proteins.
Protein interactions were studied in a BIAcore 2000 system (BIAcore AB) using 10 mM HEPES, 100 mM NaCl, pH=7.4 as running buffer. A CM5 sensor chip was activated by a 4 min injection of 0.05M N-hydroxysuccinimid, 0.2 M N-ethyl-N-(3-dimethylaminopropyl)-carbodiimide hydrochloride in water. Collagen IV from human placenta (Sigma, 1 mg/ml in 0.1M NaAc) was diluted 1:25 in 10 mM NaAc (pH=5.2). Immediate injection of 3 μl at a flow rate of 5 μl/min lead to immobilization of 400 to 550 response units (RU) of collagen IV. Residual reactive groups were inactivated by 6 min injection of 1 M ethanolamine, 0.1 M NaHCO3, 0.5 M NaCl, 5 mM EDTA, pH=8.0. […]

collagen IV [2] = assay: Immunization of mice, anti-collagen IV antibody titer by ELISA; format: in vivo, BALB/c mice; settings: sera of immunized mice compared to the buffer control
Experimental: Pathogen free 8 week old female BALB/c mice were immunized intra-peritoneally with an emulsion of 25-30 μg recombinant purified protein in 50 μl PBS and 50 μl Freund's incomplete adjuvant per dose at day 1, 7 and 14. Control mice were injected with 50 μl PBS and 50 μl Freund's incomplete adjuvant per dose. At day 21, serum samples of each group were collected and tested in ELISA. To absorb FOG reactive antibodies, 10 μl serum pool was diluted 1:50 in PBS, and incubated for 1 h with 1 mg GST-FOGfl protein immobilized on glutathione sepharose 4B. Antibodies that bound to the affinity matrix were removed by centrifugation. The supernatant was subjected to ELISA analysis.
To determine anti-collagen CIV antibody titers, 96 well plates (Greiner, Frickenhausen, Germany) were coated over night at 4° C. with anti-human collagen IV rabbit polyclonal antibody (Progen, Heidelberg, Germany) diluted 1:100 in 0.1 M NaHCO3 (pH=9.6), blocked with 2% bovine serum albumin (BSA) in PBST and incubated with collagen IV (2 μg/ml in PBS) for 1 h at 37° C. […] After washing, bound antibodies were detected using suitable horseradish peroxidase coupled secondary anti-serum (goat anti-mouse IgG,M, Jackson Laboratories; rabbit anti-human IgG, A, M, Sigma-Aldrich) and 2,2-azino-di-[3-ethylbenzthiazoline sulfonate]diammonium salt (ABTS tablets, Boehringer, Mannheim, Germany) as substrate. […]

T1 sequence (P02462 173-1669): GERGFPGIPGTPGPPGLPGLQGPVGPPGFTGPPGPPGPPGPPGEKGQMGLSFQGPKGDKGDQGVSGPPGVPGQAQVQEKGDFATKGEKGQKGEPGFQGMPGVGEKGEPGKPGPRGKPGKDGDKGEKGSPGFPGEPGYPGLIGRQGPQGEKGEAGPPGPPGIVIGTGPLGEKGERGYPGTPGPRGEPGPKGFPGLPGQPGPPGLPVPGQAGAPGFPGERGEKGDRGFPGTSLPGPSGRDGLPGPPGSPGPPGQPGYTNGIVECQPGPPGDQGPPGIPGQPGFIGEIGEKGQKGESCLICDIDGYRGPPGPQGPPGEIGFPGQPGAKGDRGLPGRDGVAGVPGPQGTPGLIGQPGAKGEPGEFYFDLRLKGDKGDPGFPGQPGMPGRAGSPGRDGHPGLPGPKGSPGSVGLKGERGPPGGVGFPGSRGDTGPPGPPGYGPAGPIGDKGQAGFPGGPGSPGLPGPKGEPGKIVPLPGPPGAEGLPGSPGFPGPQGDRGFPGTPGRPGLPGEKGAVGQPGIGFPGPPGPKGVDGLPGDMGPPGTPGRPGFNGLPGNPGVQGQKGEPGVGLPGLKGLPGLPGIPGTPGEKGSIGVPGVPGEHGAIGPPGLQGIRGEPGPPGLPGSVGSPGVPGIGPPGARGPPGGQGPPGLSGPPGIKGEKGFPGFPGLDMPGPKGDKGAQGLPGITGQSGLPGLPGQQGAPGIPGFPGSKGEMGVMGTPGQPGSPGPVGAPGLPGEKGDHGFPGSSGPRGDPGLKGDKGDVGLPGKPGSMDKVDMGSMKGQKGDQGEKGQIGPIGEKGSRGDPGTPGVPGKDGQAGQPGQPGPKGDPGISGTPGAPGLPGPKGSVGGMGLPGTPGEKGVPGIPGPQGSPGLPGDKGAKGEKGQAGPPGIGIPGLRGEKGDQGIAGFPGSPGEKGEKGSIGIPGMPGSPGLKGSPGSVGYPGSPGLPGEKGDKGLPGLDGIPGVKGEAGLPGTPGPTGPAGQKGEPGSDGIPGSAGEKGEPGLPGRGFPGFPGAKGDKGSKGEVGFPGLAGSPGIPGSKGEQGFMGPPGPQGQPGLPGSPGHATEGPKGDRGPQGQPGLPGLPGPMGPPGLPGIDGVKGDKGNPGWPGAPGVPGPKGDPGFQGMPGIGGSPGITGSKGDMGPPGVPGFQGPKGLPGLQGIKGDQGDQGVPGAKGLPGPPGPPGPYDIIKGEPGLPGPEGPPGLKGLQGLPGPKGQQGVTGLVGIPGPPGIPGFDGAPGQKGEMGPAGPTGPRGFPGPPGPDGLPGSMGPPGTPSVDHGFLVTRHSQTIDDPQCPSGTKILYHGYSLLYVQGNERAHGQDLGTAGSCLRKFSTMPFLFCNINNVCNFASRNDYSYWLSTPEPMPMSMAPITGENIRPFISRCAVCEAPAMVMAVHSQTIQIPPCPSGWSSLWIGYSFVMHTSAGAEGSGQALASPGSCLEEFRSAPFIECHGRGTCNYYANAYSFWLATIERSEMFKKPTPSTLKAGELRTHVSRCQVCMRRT
T1 sequence (P08572 184-1712): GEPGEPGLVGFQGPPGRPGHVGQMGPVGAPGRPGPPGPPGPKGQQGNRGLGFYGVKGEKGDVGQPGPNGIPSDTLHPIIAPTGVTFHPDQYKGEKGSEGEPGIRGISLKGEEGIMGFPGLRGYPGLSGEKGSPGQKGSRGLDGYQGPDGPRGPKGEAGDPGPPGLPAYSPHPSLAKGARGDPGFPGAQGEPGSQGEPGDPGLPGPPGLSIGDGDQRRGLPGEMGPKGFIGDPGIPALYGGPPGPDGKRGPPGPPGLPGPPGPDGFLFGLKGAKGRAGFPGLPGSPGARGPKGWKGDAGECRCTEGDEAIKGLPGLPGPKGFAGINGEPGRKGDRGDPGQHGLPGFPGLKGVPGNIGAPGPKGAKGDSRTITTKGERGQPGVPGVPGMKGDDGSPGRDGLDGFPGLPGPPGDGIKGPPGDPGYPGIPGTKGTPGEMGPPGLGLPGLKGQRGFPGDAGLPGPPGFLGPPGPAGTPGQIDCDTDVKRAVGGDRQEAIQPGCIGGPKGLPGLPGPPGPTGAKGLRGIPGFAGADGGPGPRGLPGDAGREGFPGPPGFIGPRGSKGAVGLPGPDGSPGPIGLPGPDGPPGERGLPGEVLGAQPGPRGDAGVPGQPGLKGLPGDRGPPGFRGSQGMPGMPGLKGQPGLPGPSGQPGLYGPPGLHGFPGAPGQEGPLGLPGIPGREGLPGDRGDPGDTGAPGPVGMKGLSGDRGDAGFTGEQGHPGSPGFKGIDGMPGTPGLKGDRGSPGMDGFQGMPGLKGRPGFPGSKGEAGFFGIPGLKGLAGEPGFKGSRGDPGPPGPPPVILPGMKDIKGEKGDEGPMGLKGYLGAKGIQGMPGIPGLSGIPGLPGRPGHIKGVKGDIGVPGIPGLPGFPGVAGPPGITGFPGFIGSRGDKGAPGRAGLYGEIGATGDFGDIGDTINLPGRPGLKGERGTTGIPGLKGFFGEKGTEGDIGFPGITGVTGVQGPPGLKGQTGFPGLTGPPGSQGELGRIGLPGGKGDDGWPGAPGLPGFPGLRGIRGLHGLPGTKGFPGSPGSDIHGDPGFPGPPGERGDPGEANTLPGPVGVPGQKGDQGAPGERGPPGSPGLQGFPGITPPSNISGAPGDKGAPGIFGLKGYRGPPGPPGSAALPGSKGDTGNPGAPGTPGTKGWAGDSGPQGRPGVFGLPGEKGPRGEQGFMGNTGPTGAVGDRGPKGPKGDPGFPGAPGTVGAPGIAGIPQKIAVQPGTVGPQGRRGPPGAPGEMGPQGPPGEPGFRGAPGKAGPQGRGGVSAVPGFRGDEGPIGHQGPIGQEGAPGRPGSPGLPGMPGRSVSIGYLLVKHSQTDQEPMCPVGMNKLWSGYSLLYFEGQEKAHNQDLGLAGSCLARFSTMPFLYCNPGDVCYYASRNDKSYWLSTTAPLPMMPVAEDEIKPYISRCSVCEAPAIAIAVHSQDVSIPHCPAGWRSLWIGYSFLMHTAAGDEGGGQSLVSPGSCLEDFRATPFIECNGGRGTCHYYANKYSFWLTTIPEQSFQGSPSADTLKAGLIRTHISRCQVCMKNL

B1: FOG1-A: recombinant protein, the first 134 amino acids of the mature FOG protein (protein, listed as Streptococcus sp.)
chain: DRWKAQTEEARTDKLIAGFANLDADVTNLGKMMDELQKLKDFSKQNNSIGEYARYLQKLNDQFQEYYEQVVGDDSRRVLAKELAKNTELNEKLSELSTTSQALAKELQEQKENYDLVK
interaction with immobilized collagen IV (collagen IV [1]): concentration dependent interaction | titers of anti-collagen antibodies in ELISA (collagen IV [2]): Substantially higher titers
